For two molecules, Ki results are on record in PMC4278837, “A Cyclic Peptidic Serine Protease Inhibitor: Increasing Affinity by Increasing Peptide Flexibility” (PLoS ONE, 2014).

Among the targets are muPA-V213T (murine); muPA-Y99A (murine); muPA-S190A (murine); muPA-K143A (murine); muPA-K41A (murine).
Holding throughout (experiment): enzyme inhibition (steady state, chromogenic substrate S-2444); about 2 nM enzyme (purified or conditioned medium of transfected cells) pre-incubated 15 min with varied peptide in HBS (10 mM HEPES pH 7.4, 140 mM NaCl) with 0.1% BSA at 37°C; substrate about KM; fit for competitive inhibition; highest peptide concentration 400 µM

Bridge positions count the residues as written; N and C are the ends. Ends that are not written are not given here.

The Ki is a dissociation constant, usually derived from enzyme kinetics or from competition with a known ligand. A low value points to tighter binding. Turning to CPAYSRYLAC (disulfide 1-10 (inferred)) [Mupain-1 D9A], the inhibition constant Ki in the experiment with muPA-V213T (murine) stood at 0.373 µM; with muPA-Y99A (murine), 27.2 µM; with muPA-S190A (murine), 3.02 µM; in the experiment with muPA-K143A (murine), 4.34 µM; in the experiment with muPA-K41A (murine), 0.27 µM.

As for CPAYSRYLDC (disulfide 1-10 (inferred)) [mupain-1], the inhibitory constant (Ki) stood at 0.246 µM with muPA-V213T (murine); 26 µM with muPA-Y99A (murine); 1.6 µM with muPA-S190A (murine); 4.88 µM with muPA-K143A (murine); 4.29 µM in the experiment with muPA-K41A (murine).
